Marks after values point to notes of the source that are not given here.
Experiments:
Assay type in all cases: cell-based
Jurkat = test: Apoptosis of cell lines: Jurkat; conditions: 21 hrs
Source text: (§1) The following cell lines representing various leukaemia's and lymphoma's, as classified by ATCC (www.atcc.org/), were used: Jurkat—acute T-cell leukaemia; CCRF-SB—B-cell acute lymphoblastic leukaemia; MC116—B-cell undifferentiated lymphoma; Raji, Ramos—Burkitt lymphoma (rare form of B-cell non-Hodgkin lymphoma); SU-DHL-4, SU-DHL-5, SU-DHL-8, NU-DUL-1, OCI-Ly3—Diffuse large B-cell lymphoma; THP-1—acute monocytic leukaemia; and Dakiki—B cell nasopharyngeal carcinoma.
(§2) Prior to an assay being performed, 1 vial of each of the above cell lines was thawed in a 37° C. water bath and then added to 20 ml complete media (RPMI 1640+2 mM GlutaMAX+1% Pen/Strep, all previous supplied by Invitrogen, +10% Fetal Bovine Serum (FBS), Sigma Aldrich). Cells were spun (500 g, 5 min, at RT) and re-suspended in 20 ml complete media to wash and spun again. Cells were resuspended in 10 ml complete media and then counted using a ChemoMetec NucleoCounter NC-3000. 6×10^6 cells of each cell line were spun (500 g, 5 min, at RT) and re-suspended in 4.8 ml complete media. 1×10^5 cells in 80 μl were then added to each well of a Corning Costar 96-well, cell culture treated, U-shaped-bottom microplate (cat no. 07-200-95). The plate was rested in a 37° C., 5% CO2 incubator for 2 hrs
(§3) Stocks of 4133-6294 BYbe and NegCtrl BYbe at 2500 nM in complete media were prepared. In a Greiner 96-well non-binding microplate, both reagents were serially diluted in complete media 1 in 5, seven times to produce to form an 8-point dose curve. […] (final well concentrations 500-0.0064 nM) was added to the cells. Each concentration was produced in triplicate. Camptothecin (cat no. C9911-100MG, Sigma Aldrich) and Staurosporine (cat no. 56942-200UL, Sigma Aldrich) were added as positive controls of apoptosis. Both were diluted in complete media and added to the well to produce a final concentration of 5 μM. Additional positive controls included anti-thymocyte globulin (ATG, indicated by FDA for use in conditioning regimens), Rituximab (anti-CD20, indicated by FDA for Non-Hodgkin Lymphoma and Chronic Lymphocytic Leukaemia) and Campath (anti-CD52, indicated by FDA for B-cell Chronic Lymphocytic Leukaemia). Anti-thymocyte globulin, Rituximab and Campath were added to the wells to produce final concentrations of 200 μg/ml, 500 nM and 200 μg/ml, respectively. […]
(§4) Following the incubation, the plates were spun at 500 g, 5 min, RT, the buffer was aspirated with a BioTek ELx405 microplate washer, and the cells were re-suspended in FACS buffer (PBS+1% bovine serum albumin (BSA)+0.1% NaN3+2 mM EDTA, Sigma Aldrich) to wash and then re-spun and buffer was aspirated to leave the cells in 20 μl residual media. […] Cells were analysed using the Bio-Rad ZE5 Cell Analyzer. […]

MC116 = test: Apoptosis of cell lines: MC116; conditions: MC116, 21 hrs
Source text: as §1, §2, §3, §4

Ramos = test: Apoptosis of cell lines: Ramos; conditions: 21 hrs
Source text: as §1, §2, §3, §4

NU-DUL-1 = test: Apoptosis of cell lines: NU-DUL-1; conditions: NU-DUL-1, 21 hrs
Source text: as §1, §2, §3, §4

| Molecule | Campath mean (%) cell reduction (Jurkat; 200 μg/ml) | Campath mean (%) cell reduction (MC116; 200 μg/ml) | Campath mean (%) cell reduction (Ramos; 200 μg/ml) | Campath mean (%) cell reduction (NU-DUL-1; 200 μg/ml) | Bottom (%) level of % cell reduction (Jurkat) | Top (%) level of % cell reduction (Jurkat) | Top (%) level of % cell reduction (MC116) | Bottom (%) level of % cell reduction (MC116; calculated bottom of non-sigmoidal curve) | Bottom (%) level of % cell reduction (Ramos) | Top (%) level of % cell reduction (Ramos) | Bottom (%) level of % cell reduction (NU-DUL-1) | Top (%) level of % cell reduction (NU-DUL-1) |
| --- | --- | --- | --- | --- | --- | --- | --- | --- | --- | --- | --- | --- |
| Campath: anti-CD52, clinical grade, indicated by FDA for B-cell Chronic Lymphocytic Leukaemia; positive control [reference compound] | 5.64% | 70.24% | 39.40% | 67.49% | – | – | – | – | – | – | – | – |
| 4133-6294 BYbe: anti-CD45 BYbe (Fab-scFv): 4133 Fab HC-G4S linker-6294 scFv heavy chain paired with 4133 light chain (antibody) heavy: QEQLVESGGGLVQPEGSLTLTCTASGFSFSGNYYMCWVRQAPGKGLEWIGCLYTGSSGSTYYASWAKGRFTISKTSSTTVTLQMTSLTAADTATYFCARDLGYEIDGYGGLWGQGTLVTVSSGQPKAPSVFPLAPCCGDTPSSTVTLGCLVKGYLPEPVTVTWNSGTLTNGVRTFPSVRQSSGLYSLSSVVSVTSSSQPVTCNVAHPATNTKVDKTVAPSTCSKPGGGGSGGGGSEVQLVESGAELARPGASVKMSCKASGYTFTSYTMHWVKQRPGQCLEWIGYINPSSGYTEYNQKFKDKTTLTADKSSSTAYLQLSSLTSEDSAVYYCARVGDGFYPSWLAYWGQGTLVTVSSGGGGSGGGGSGGGGSGGGGSDIQMTQSPKFLLVSAGDRVTITCKASQSVRNDVAWYQQKPGQSPKLLIFYASKRYTGVPDRFTGSGYGTDFTFTISTVQAEDLAVYFCQQDYSSPTTFGCGTKLEIK light: AQVLTQTPSPVSAVVGGTVSISCQASQSVYNNNNLSWYQQKPGQPPKLLIYDASKLASGVPSRFKGSGSGTQFTLTISGVQCDDAATYYCLGGYYSSGWYFAFGGGTKVVVKRTPVAPTVLIFPPAADQVATGTVTIVCVANKYFPDVTVTWEVDGTTQTTGIENSKTPQNSADCTYNLSSTLTLTSTQYNSHKEYTCKVTQGTTSVVQSFNRGDC | – | – | – | – | 23.49% | 99.27% | 99.45% | −65.46* % | 1.61% | 96.11% | 5.07% | 44.87% |

Source: US20230374148A1, “BINDING MOLECULES THAT MULTIMERISE CD45” (UCB BIOPHARMA SRL, priority 2020, published 2023)
